According to article PMC8189437 (Molecular Cell, 2021):

T1: Gid9 (S. cerevisiae, UniProt P40492 1-516)
T1 sequence: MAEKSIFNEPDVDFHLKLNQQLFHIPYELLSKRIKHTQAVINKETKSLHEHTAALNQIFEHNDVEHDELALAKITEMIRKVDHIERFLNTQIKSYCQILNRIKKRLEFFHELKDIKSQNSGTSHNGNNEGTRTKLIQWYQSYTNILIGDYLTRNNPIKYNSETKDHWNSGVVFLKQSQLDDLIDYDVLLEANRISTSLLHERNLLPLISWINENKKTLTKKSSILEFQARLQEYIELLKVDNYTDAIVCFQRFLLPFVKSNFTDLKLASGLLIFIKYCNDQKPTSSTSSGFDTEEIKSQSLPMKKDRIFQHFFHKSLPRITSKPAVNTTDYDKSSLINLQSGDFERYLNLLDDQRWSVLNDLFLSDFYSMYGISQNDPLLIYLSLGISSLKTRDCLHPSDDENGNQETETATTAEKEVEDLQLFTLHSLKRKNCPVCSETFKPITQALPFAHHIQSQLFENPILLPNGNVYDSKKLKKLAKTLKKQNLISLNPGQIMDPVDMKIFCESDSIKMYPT

T2: Gid1 (S. cerevisiae, UniProt P53076)
T2 sequence: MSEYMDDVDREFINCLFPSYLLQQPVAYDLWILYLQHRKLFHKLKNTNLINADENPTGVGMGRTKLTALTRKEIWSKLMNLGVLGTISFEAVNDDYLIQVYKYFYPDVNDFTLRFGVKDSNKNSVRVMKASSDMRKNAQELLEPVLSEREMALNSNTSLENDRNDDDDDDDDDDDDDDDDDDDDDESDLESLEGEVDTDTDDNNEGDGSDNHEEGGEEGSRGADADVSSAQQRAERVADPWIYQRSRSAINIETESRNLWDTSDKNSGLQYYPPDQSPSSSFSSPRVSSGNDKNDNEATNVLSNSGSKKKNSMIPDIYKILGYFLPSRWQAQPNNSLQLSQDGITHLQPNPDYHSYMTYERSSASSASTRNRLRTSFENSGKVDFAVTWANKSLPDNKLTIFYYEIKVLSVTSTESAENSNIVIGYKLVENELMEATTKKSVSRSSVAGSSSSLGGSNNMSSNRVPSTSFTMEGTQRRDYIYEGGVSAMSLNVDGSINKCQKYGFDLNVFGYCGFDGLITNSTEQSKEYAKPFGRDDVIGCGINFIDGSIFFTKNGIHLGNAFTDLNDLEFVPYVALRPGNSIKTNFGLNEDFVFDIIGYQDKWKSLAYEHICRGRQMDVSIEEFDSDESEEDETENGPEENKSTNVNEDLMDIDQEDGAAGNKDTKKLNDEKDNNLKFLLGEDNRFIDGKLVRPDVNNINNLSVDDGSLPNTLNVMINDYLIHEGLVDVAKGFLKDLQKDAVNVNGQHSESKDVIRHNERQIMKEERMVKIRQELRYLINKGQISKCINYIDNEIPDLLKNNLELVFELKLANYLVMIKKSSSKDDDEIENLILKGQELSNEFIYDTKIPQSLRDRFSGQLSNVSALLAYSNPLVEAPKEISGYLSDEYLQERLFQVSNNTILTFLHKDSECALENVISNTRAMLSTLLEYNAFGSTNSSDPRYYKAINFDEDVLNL

T3: Gid5 (S. cerevisiae, UniProt P40547)
T3 sequence: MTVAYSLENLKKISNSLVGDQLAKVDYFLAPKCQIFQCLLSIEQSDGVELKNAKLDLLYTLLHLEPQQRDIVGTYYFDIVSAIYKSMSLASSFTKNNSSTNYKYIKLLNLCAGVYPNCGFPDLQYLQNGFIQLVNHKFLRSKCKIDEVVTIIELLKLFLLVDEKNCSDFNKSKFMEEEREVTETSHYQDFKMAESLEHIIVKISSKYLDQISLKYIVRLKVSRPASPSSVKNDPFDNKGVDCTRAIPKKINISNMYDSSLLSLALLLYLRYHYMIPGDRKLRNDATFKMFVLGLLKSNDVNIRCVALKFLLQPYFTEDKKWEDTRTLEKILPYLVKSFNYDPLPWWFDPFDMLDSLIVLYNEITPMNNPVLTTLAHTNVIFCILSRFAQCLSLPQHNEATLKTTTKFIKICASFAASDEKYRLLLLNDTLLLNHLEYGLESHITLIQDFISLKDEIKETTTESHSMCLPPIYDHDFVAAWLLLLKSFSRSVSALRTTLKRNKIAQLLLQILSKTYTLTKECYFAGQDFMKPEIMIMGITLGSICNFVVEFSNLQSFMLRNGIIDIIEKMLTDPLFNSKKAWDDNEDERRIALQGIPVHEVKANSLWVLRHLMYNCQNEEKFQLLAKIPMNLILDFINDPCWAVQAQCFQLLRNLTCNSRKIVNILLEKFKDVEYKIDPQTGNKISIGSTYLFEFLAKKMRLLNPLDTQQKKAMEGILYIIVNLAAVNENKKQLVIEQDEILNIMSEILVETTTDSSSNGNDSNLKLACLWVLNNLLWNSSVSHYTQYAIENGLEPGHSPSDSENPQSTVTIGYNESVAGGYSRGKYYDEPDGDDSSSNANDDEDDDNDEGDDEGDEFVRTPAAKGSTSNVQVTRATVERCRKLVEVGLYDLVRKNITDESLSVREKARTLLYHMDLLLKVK

B1: Gid8 with a C-terminal twin-Strep tag (natural protein)
chain: MTISTLSNETTKSGSCSGQGKNGGKDFTYGKKCFTKEEWKEQVAKYSAMGELYANKTIHYPLKIQPNSSGGSQDEGFATIQTTPIEPTLPRLLLNYFVSMAYEDSSIRMAKELGFIRNNKDIAVFNDLYKIKERFHIKHLIKLGRINEAMEEINSIFGLEVLEETFNATGSYTGRTDRQQQQQQQQFDIDGDLHFKLLLLNLIEMIRSHHQQENITKDSNDFILNLIQYSQNKLAIKASSSVKKMQELELAMTLLLFPLSDSADSGSIKLPKSLQNLYSISLRSKIADLVNEKLLKFIHPRIQFEISNNNSKFPDLLNSDKKIITQNFTVYNNNLVNGSNGTKITHISSDQPINEKMSSNEVTAAANSVWLNQRDGNVGTGSAATTFHNLENKNYWNQTSELLSSSNGKEKGLEFNNYYSSEFPYEPRLTQIMKLWCWCENQLHHNQIGVPRVEN
B2: Gid2 (natural protein)
chain: MSELLDSFETEFAKFYTDSNLEETNLQKCLDHTHEFKSQLKKLKAHLNKHIQESKPEVYNKLSDKEKQKFKRKRELIIEKLSKSQRQWDHSVKKQIKYVSQQSNRFNKSTLNKLKEFDIDSVYVNKLPKETMENVNEAIGYHILRYSIDNMPLGNKNEAFQYLKDVYGITNKESTEFIEMGQIVHDLKKGDTESCLKWCSNEMESLSSNHTALSSLKFDLYTLSAMQIVKHGNPVELYYQITQNAPLDCFRHREKELMQNVVPLLTKSLIGQPIEDIDSKVNKELKECTSLFIKEYCAAKHIFFDSPLFLIVLSGLISFQFFIKYKTIRELAHVDWTTKDELPFDVKLPDFLTHFHPIFICPVLKEETTTENPPYSLACHHIISKKALDRLSKNGTITFKCPYCPVNTSMSSTKKVRFVML
B3: fructose-1,6-bisphosphatase (Fbp1), C-terminally 6xHis-tagged (enzyme)
chain: PTLVNGPRRDSTEGFDTDIITLPRFIIEHQKQFKNATGDFTLVLNALQFAFKFVSHTIRRAELVNLVGLAGASNFTGDQQKKLDVLGDEIFINAMRASGIIKVLVSEEQEDLIVFPTNTGSYAVCCDPIDGSSNLDAGVSVGTIASIFRLLPDSSGTINDVLRCGKEMVAACYAMYGSSTHLVLTLGDGVDGFTLDTNLGEFILTHPNLRIPPQKAIYSINEGNTLYWNETIRTFIEKVKQPQADNNNKPFSARYVGSMVADVHRTFLYGGLFAYPCDKKSPNGKLRLLYEAFPMAFLMEQAGGKAVNDRGERILDLVPSHIHDKSSIWLGSSGEIDKFLDHIGKSQ
B4: Gid4 (Δ1-116) (domain or fragment)
chain: TVCTNYLRPRMQFTGYQISGYKRYQVTVNLKTVDLPKKDCTSLSPHLSGFLSIRGLTNQHPEISTYFEAYAVNHKELGFLSSSWKDEPVLNEFKATDQTDLEHWINFPSFRQLFLMSQKNGLNSTDDNGTTNAAKKLPPQQLPTTPSADAGNISRIFSQEKQFDNYLNERFIFMKWKEKFLVPDALLMEGVDGASYDGFYYIVHDQVTGNIQGFYYHQDAEKFQQLELVPSLKNKVESSDCSFEFA

What was measured:
[1] = molecular target: GST-WDR26 (human) (UniProt Q9H7D7); assay: cryo-EM structure
[2] = molecular target: T1, Gid9; assay: cryo-EM structure
[3] = molecular target: T2, Gid1; assay: cryo-EM structure
[4] = molecular target: B1; assay: cryo-EM structure
[5] = molecular target: the molecule itself; assay: crystal structure
[6] = molecular target: T3, Gid5; assay: cryo-EM structure

Molecule: GST-WDR26 (from UniProt Q9H7D7 1-661) (natural protein)
- stoichiometry N [1]: 2

Molecule: B1
- binding result [2]: binds
- binding result [3]: binds

Molecule: B2
- binding result [2]: binds
- binding result [4]: binds

Molecule: B3
- stoichiometry N [5]: 4

Molecule: B4
- binding result [6]: binds
